Reference: the supplement of paper PMC10567573

B1: TNXB (parent)
chain: LLQRELMVPGTRHSAVLRDLRSGT

Variants of: B1
Experiment: protein stability index of a GFP-peptide fusion (GPS, HEK-293T) (PSI 1-6); higher = more stable
Conditions: c terminus: a fixed tail appended
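Note: lentivirally expressed fusions sorted by FACS into six bins by GFP to DsRed ratio, PSI derived from sequencing read proportions per bin multiplied by bin number.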

Protein stability index of substitutions, site by site:
V8: F 2.28; R 2.12; I 1.99; L 2.35; D 2.91; Q 2.22; W 2.34; H 2.36; S 3.11; A 2.42; P 2.21; N 2.59; C 2.12; G 2.27; K 2.46; E 2.62; M 2.15; T 2.36; Y 2.32
R21: W 2.75; A 2.73; Q 2.01; Y 2.12; S 2.06; C 2.06; V 1.88; L 1.99; P 2.85; F 1.95; I 2.13; N 2.34; H 3.21; K 3.03; M 1.99; E 2.58; G 2.43; D 2.69; T 2.18
R12: I 2.47; V 2.26; N 2.76; P 2.91; D 3.01; G 3.09; H 2.4; W 2.35; C 1.94; M 1.85; L 2.07; Y 2.45; T 2.27; Q 2.42; K 2.28; S 2.06; E 2.39; A 2.01; F 1.98
D19: L 1.75; F 2.18; P 2.69; C 1.49; R 1.69; M 2.39; Y 2.23; H 2.26; N 2.06; S 2.31; A 2.27; I 1.71; V 1.71; W 1.73; T 2.46; Q 2.29; E 2.78; G 2.31; K 2.07
L17: E 3.47; G 2.84; K 3.75; N 2.96; R 3.46; V 2.85; A 2.55; W 2.38; T 2.73; P 2.97; I 2.81; F 2.23; C 2.54; Y 2.45; M 3.05; S 3.16; Q 3.32; H 2.28; D 2.62
S22: N 2.09; L 2.04; A 2.32; I 2.5; F 1.58; G 2.12; D 2.96; E 2.41; P 2.43; K 2.77; C 2; H 2.2; M 2.19
T11: C 1.56; I 2.38; V 2.24; R 2.13; H 2.68; Y 1.94; S 2.5; E 2.65; W 1.69; D 2.81; G 3.21; P 2.51; L 2.32; K 2.32; N 2.43; Q 2.88; A 2.2; M 2.2; F 2.3
G10: K 2; V 2.02; W 1.72; M 1.72; L 1.35; D 2.85; Y 1.09; C 1.43; E 3.01; R 2.9; T 2.58; Q 2.41; F 2.33; N 2.75; S 3.01; P 2.54; H 2.19; I 1.64; A 2.39
L6: G 2.8; H 3.18; C 2.59; P 3.15; D 3.37; R 2.59; K 2.79; W 2.52; Q 2.69; E 2.7; A 2.43; N 2.9; I 2.19; M 2.49; Y 2.63; T 3.53; F 2.74; S 3.1; V 2.89
H13: C 2.1; V 2.1; K 2.09; E 2.82; T 2.22; W 2.01; F 1.59; M 2.25; Q 3; N 2.58; S 2.9; Y 2.15; A 2.53; R 3.11; I 1.91; D 3.23; L 2.01; G 2.31; P 3.06
L20: Y 2.27; H 2.7; D 3.65; M 2.25; I 2.52; T 2.66; G 3.37; N 3.53; P 2.53; W 2.3; S 3.38; V 2.63; Q 2.89; E 3.37; R 2.86; F 1.92; A 2.97; C 2.85; K 3.02
S14: V 2.22; H 2.26; K 2.67; W 2.11; Q 2.85; P 2.32; I 1.75; M 2.23; L 1.61; R 2.45; T 2.45; A 2.2; E 2.54; G 2.63; D 2.66; Y 2.71; C 2.03; F 2.32; N 2.88
P9: C 2; L 2.02; Q 2.1; K 2.21; H 2.23; D 2.69; Y 2.01; T 2.03; I 1.58; A 2.35; V 2.38; S 2.2; R 2.21; N 2.34; G 2.3; F 1.79; W 1.68; E 2.54; M 2.1
R18: A 2.68; S 2.61; W 1.8; V 2.51; M 2.12; P 2.75; I 2.21; G 2.44; F 2.02; Y 2.07; N 2.71; L 1.94; D 2.83; K 2.39; E 3.33; Q 2.48; H 2.86; C 2.42; T 2.43
A15: K 2.82; W 3.49; I 2.26; E 2.92; S 2.27; P 2.35; H 2.41; L 2.14; Q 1.97; N 3.19; V 1.95; D 2.29; Y 1.62; R 3.4; G 2.34; F 1.98; M 2.43; T 2.18; C 1.72
E5: N 2.85; P 2.44; I 2.06; Q 2.6; W 2.84; G 2.03; Y 2.38; A 1.81; F 1.18; C 1.67; T 1.77; R 1.98; H 1.87; K 2.6; V 2.11; D 2.81; S 2.29; M 1.64
M7: V 2.67; D 3.17; I 2.44; G 3.15; P 3.11; E 3.61; T 2.72; H 2.35; L 2.39; F 2.02; S 3.42; N 2.57; K 2.52; R 2.16; W 2.05; Y 3.15; Q 2.23; A 2.97; C 2.54
V16: A 3.05; M 2.15; I 2.11; H 2.46; C 2.02; E 2.72; Q 2.68; D 3.19; P 2.82; R 2.52; N 3; T 2.7; K 2.48; F 1.71; Y 3.05; W 2.06; S 2.27; L 2.33
